Results published in publication PMC9811221 (2022).

Target: PD-L1-Fc fusion protein (Invitrogen) (human, UniProt Q9NZQ7 19-238)
Test: BLI

PD-L1-Fc fusion protein (Invitrogen), sequence (Q9NZQ7 19-238): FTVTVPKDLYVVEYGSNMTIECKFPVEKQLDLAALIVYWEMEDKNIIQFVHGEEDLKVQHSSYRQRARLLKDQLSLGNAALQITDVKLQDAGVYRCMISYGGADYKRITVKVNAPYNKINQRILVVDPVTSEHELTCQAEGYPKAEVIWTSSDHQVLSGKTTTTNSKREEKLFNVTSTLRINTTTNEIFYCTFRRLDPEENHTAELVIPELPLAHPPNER

B1: VHH18 (VHH)
VHH: EVQLVESGGGWVQTGGSLRLSCAASGSTFDIKRMAWYRQAPGKEREFVADIWSEGSTHYADSVKGRFTISRDSAKNTMYLYMNSLKPEDTAVYYCNVEYVLRTYWGQGTQVTVSS
Kd: 720 nM

B2: VHH2 (VHH)
VHH: QVQLVESGGGSVQPGGSLRLSCAASGSIVGHAVQAWYRQAPGKQRDLVAQLFDNGKTNIADSVKGRFTISGDNAKNTFYLQMNNLKPEDTAIYYCAILILPSMGVPPNIYEGQGTQVTVSS
Kd: 2200 nM

B3: VHH16 (VHH)
VHH: QVQLVESGGGWVQTGGSLRLSCAASGSTFDIKRMAWYRQAPGKEREFVADIWSEGSTHYADSVKGRFTISRDSAKNTMYLQMNSLKPEDTAAYYCNVGNTWGQGTQVTVSS
Kd: 180 nM

B4: VHH22 (VHH)
VHH: EVQLVESGGGLVQAGGSLKLSCAASGRTFSGNTMGWFRQAPGKERELVTVVSSGGSTYYSDSVKGRFTISRDNALNTVYLQMNSLKPEDTAVYYCAAASLISGLTTTRRLFDYWGQGTQVTVSS
Kd: 2700 nM

B5: VHH17 (VHH)
VHH: EVQLVESGGGLVQAGGSLRLSCAASGRTFSAYAMGWFRQAPGKERELVAGISWSGGMTYYADSVKGRFTISRDNAKNMVYLQMNSLKAEDTAVYYCAGGFSAVVPDHPDEYHYWGQGTQVTVSS
Kd: 330 nM

B6: VHH14 (VHH)
VHH: EVQLVESGGGLVQAGDSLRLSCTASARTFIKYAMGWFRQAPGKEREFVAAISWSGSRTTYADSVKGRFTISRDNDKNTVYLQMNTLEPEDTAIYYCAKAKGGYHSSQYDYDYWGQGTQVTVSS
Kd: 290 nM

B7: VHH13 (VHH)
VHH: EVQLVESGGGLVQPGGSLRLSCAASGSTFSINAMGWYRQAPGKQRELVAAISSGGSTNYADSVKGRFTISRDNAKNTVYLQMNSLKPEDTAVYYCNTINIGTFISLGGSPLGSWGQGTQVTVSS
Kd: 1300 nM

B8: VHH20 (VHH)
VHH: EVQLVESGGGSVQAGGSLRLSCVASGIAFSESPMAWYRQAPGRQREFVADVSADNKPYYRDTLKGRFTISRDNDKNSVYLQMNFLQPEDTAVYYCNALLLEAGTIKNYWGQGTQVTVSS
Kd: 340 nM

B9: VHH21 (VHH)
VHH: EVQLVESGGGLVQTGGSLRLSCAASGRTFDSYFMGWFRQAPGKEREFVAAISGSGSLTSYEDGVKGRFTISRDNAKNTVSLQMTNLKPEDTAVYYCASCLSCAFINGRQVDSRYYNYWGQGTQVTVSS
Kd: 5100 nM

B10: VHH10 (VHH)
VHH: EVQLVESGGGLVQAGDSLRLSCAASGRAFSGYAMAWFRQAPEKEREFVAAITWRGGTPYYAVRAKGRFTISRDSAKNTAYLEVNSLKPEDTATYYCAAPSLQVATMDVKDYAYWGQGTLVTVSS
Kd: 190 nM

B11: VHH19 (VHH)
VHH: EVQLVESGGGSVQAGASLRLSCAASGFPFSHYAIGWFRQAPGKEREFVTSIDRSGINTYYADSVKGRFTISRDNAKNAVSLQMNSLKPDDTAVYYCAAGPRLVTSPELYPYWGQGTQVTVSS
Kd: 1600 nM
